Results reported in publication PMC3285272.

Molecular target: S. cerevisiae Arf1 (residues 18–181) with a C-terminal GST tag (S. cerevisiae) (UniProt P11076)
Experiment: pull-down

Chain of S. cerevisiae Arf1 (residues 18–181) with a C-terminal GST tag (S. cerevisiae) (P11076 18-181): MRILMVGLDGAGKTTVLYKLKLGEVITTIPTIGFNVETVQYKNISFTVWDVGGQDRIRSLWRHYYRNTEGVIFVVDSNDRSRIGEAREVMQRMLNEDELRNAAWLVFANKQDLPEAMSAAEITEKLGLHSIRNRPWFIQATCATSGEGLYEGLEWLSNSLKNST

γζ-COP dimer with full-length γ-COP L128E (from UniProt P53620 1-874; P35604 1-177) (complex)
percent of the binding capacity of wild-type protein: 90%
